Reference: patent US20140255415A1 (Novartis, published 2014)
Residue numbers refer to the chain shown, from its start.

Assays:
[1] = molecular target: T1, human LINGO-2 expressed on CHO-K1 cells (CHO-K1-hLINGO-2) (human, UniProt Q7L985 26-606); assay: apparent KD, FACS saturation binding on CHO-K1-hLINGO-2 cells, IgG4 format
T1 construct: range 26-606; not shown: 2 amino acid residue linker
T1 sequence (looked up): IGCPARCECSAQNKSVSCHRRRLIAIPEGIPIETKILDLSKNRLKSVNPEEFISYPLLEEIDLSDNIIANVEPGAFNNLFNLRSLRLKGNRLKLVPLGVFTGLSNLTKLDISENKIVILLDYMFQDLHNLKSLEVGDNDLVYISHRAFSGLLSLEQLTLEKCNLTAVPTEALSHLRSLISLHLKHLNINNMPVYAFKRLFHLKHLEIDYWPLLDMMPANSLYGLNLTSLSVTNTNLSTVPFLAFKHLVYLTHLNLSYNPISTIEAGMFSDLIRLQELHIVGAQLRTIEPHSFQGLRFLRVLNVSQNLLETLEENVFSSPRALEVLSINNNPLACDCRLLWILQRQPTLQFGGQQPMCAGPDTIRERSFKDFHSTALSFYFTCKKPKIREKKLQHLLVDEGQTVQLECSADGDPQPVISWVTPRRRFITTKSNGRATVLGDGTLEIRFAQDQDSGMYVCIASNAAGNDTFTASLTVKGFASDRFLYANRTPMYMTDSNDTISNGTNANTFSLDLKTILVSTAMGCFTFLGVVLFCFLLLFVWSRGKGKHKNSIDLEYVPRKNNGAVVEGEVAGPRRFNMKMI

[2] = molecular target: T2, rat LINGO-1 expressed on CHO-K1 cells (CHO-K1-rLINGO-1) (rat, UniProt A0A8I5ZPI2 34-614); assay: apparent KD, FACS saturation binding on CHO-K1-rLINGO-1 cells, IgG4 format
T2 construct: range 34-614; not shown: 2 amino acid residue linker
T2 sequence: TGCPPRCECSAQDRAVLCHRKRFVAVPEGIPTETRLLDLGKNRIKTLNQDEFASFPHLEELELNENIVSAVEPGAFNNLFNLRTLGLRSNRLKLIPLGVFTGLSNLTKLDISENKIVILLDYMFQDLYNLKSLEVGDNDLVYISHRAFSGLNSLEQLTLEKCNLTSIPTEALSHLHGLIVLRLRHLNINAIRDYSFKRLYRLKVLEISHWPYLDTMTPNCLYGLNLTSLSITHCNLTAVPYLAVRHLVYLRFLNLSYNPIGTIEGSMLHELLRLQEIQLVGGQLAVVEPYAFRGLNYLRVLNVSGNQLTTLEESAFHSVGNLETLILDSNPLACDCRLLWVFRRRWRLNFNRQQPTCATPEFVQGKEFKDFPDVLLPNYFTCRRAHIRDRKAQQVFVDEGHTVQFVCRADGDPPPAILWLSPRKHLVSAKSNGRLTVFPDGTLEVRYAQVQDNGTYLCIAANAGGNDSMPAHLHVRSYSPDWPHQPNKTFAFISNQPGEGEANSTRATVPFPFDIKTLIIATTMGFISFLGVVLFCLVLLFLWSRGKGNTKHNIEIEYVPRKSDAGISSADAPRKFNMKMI
Description: (§1) Cell based affinity of anti-LINGO-1 specific antibodies is determined by FACS saturation binding experiments. The determination of the apparent KD values is carried out identical to the procedure described above using anti-LINGO-1 Fab antibodies.
(§2) In detail, CHO-K1-hLINGO-1, CHO-K1-cmLINGO-1 or CHO-K1-rLINGO-1 are detached from culture flasks by versene, washed with FACS buffer and resuspended in FACS buffer. Purified anti-LINGO-1 IgG4s are serially diluted in FACS buffer and spread into round bottom 96-well microtiter plates (NUNC™, Wiesbaden, Germany). For each concentration, duplicate wells are incubated with 1.25×10⁴ cells for 30-60 min on ice in a total volume of 100 μl. […] Using this assay the following apparent KD values can be determined (Table 3).

[3] = molecular target: human LINGO-1 expressed on CHO-K1 cells (CHO-K1-hLINGO-1) (human) (UniProt Q96FE5); assay: apparent KD, FACS saturation binding on CHO-K1-hLINGO-1 cells, IgG4 pre-incubated in FACS buffer + 2.6% BSA
[4] = molecular target: human LINGO-1 expressed on CHO-K1 cells (CHO-K1-hLINGO-1) (human) (UniProt Q96FE5); assay: apparent KD, FACS saturation binding on CHO-K1-hLINGO-1 cells, IgG4, with 50% human cerebro-spinal fluid
[5] = molecular target: T3, cynomolgus monkey LINGO-1 expressed on CHO-K1 cells (CHO-K1-cmLINGO-1) (cynomolgus monkey, UniProt Q9N008 34-614); assay: apparent KD, FACS saturation binding on CHO-K1-cmLINGO-1 cells, IgG4 format
T3 construct: range 34-614; also called Cynomolgus LINGO-1; not shown: 2 amino acid residue linker
T3 sequence (looked up): T2 sequence with G261S, V286M, A315V, H386R, S494P
Description: as §1, §2

[6] = molecular target: human LINGO-1 expressed on CHO-K1 cells (CHO-K1-hLINGO-1) (human) (UniProt Q96FE5); assay: apparent KD, FACS saturation binding on CHO-K1-hLINGO-1 cells, IgG4 format
[7] = molecular target: human LINGO-1 expressed on CHO-K1 cells (CHO-K1-hLINGO-1) (human) (UniProt Q96FE5); assay: ratio of apparent KDs, FACS saturation binding on CHO-K1-hLINGO-1 cells, IgG4, without against with 50% human CSF
[8] = molecular target: human LINGO-1 expressed on CHO-K1 cells (CHO-K1-hLINGO-1) (human) (UniProt Q96FE5); assay: apparent KD, FACS saturation binding on CHO-K1-hLINGO-1 cells, IgG4 pre-incubated in FACS buffer + 50% human serum
[9] = molecular target: human LINGO-1 expressed on CHO-K1 cells (CHO-K1-hLINGO-1) (human) (UniProt Q96FE5); assay: apparent KD, FACS saturation binding on CHO-K1-hLINGO-1 cells, IgG4 pre-incubated in FACS buffer
[10] = molecular target: human LINGO-1 expressed on CHO-K1 cells (CHO-K1-hLINGO-1) (human) (UniProt Q96FE5); assay: apparent KD, FACS saturation binding on CHO-K1-hLINGO-1 cells, IgG4, without 50% human cerebro-spinal fluid (control)

Kd [1]: 950 pM
Kd [2]: 70 pM
Kd [3]: 50 pM
Kd [4]: 250 pM
Kd [5]: 180 pM
Kd [6]: 70 pM
App. KD ratio w/o CSF:w/ CSF [7]: 0.76
Kd [8]: 60 pM
Kd [9]: 80 pM
Kd [10]: 190 pM
B1: anti-LINGO-1 IgG4 antibody 4785 (antibody, V domains shown)
VH: QVQLQQSGPGLVKPSQTLSLTCAISGDSVSDNSAAWSWIRQSPGRGLEWLGLIYLRSKWDNDYAVSVKSRITINPDTSKNQFSLQLNSVTPEDTAVYYCARTGRADEFDVWGQGTLVTVSS
VL: DIVLTQPPSVSGAPGQRVTISCSGSSSNIGNNYVSWYQQLPGTAPKLLISRNSKRPSGVPDRFSGSKSGTSASLAITGLQSEDEADYYCSTYDTFSIVFGGGTKLTVLG
